“Also recorded” adds a separate entry of the source.
Columns and labels:
[1] = elevated salt, dilution, extended storage; cited from earlier work
[2] = cited from earlier work
[3] = test system: C. difficile; experiment: Cell growth by Optical Density at 420 nm (Example 3); type: cell-based, Clostridium difficile; details: absorbance 420 nm, over the time course; FIG. 6
Method: Optical Density was measured at 420 nm in a standard spectrophotometer quantified cell growth.

[4] = test system: C. difficile Strain 630; experiment: Bioassay to measure sporulation (spore and total cell CFU/ml); type: cell-based, Clostridium difficile
Method: All procedures were performed under anaerobic conditions at room temperature unless otherwise stated. All media and agar plates used were placed in an anaerobic chamber at least 24 hours prior to use. A standard bioassay to measure sporulation was performed using untreated cells, those mixed with nanoparticles consisting of either the Spo0A TFD or empty nanoparticles (containing no TFDs), to determine the effect on C. difficile Strain 630 (a laboratory reference strain that has been sequenced).
An initial overnight culture was generated by mixing 100 μl of a glycerol stock of C. difficile (consisting of spore cells of frozen in 10% glycerol and stored at −20° C.) with 10 ml Robertson's Cooked Meat Medium (Robertson (1916) J. Path. Bacteria 20: 327-349). The following day, 10 ml BHIS media (Brain Heart Infusion media, (McFaddin J. F. (1985) Media for Isolation-Cultivation-Identification-Maintenance of medical Bacteria, Vol. I, Williams and Wilkins, Baltimore) supplemented with 0.1% L-cysteine) was inoculated with 1% of the culture grown in Robertson's (consisting mostly of spore cells). […] 100 μl of this culture was used to inoculate 10 ml of BHIS which was allowed to grow until it had reached an OD600 of approximately 0.3. At this stage the growth is due to germination of spores and consists mainly of exponentially growing vegetative cells. This culture was then used to inoculate the experimental cultures that were performed in triplicate in 10 ml cultures in BHIS incubated at 37° C. The three conditions used were: A) untreated cells; B) treated with 1% (v/v) empty nanoparticles to give a final concentration of 8 μg/ml compound 7—12; C) nanoparticles loaded with Spo0A TFD to give final concentrations of 8 μg/ml compound 7—12 and 0.4 μg/ml TFD.
Aliquots were withdrawn from the cultures at TO, 24, 48, 72 and 96 h and used to calculate the total cell density and spore cell density.
Calculation of Spore Cell Density To measure the number of Colony Forming Units per ml of culture (CFU/ml) of spore cells, a 0.5 ml aliquot was withdrawn and exposed to anaerobic conditions for 25 minutes at 60° C. This heat shock step efficiently kills the vegetative cells but not the spores. A serial dilution of the treated sample was prepared in PBS buffer (Phosphate Buffered Saline) over a range of 10^−1 to 10^−6. 10 μl of each dilution was spotted in duplication onto BHIS plates supplemented with 0.1% taurocholate (which enhances germination), the spots allowed to dry and the plates incubated for 24 h at 37° C. The number of colonies was then counted and the CFU/ml of original culture calculated.
To measure CFU/ml of total cells, meaning vegetative cells plus spore cells, a 0.5 ml aliquot was withdrawn and exposed to anaerobic conditions for 25 minutes at room temperature (to control for the time taken to heat shock the spore sample). The samples were then processed as described above.

[5] = test system: C. difficile; experiment: Minimum Inhibitory Concentration (MIC) method; details: with reference to the compound 7—12 component; 24-well plates, 2 ml BHIS; 1 nM SigH TFD in the loaded nanoparticle; FIG. 7
Method: Growth was determined by the Minimum Inhibitory Concentration (MIC) method (Wiegand (2008) Nature Protocols 3: 163-175). Essentially, the antibiotic is diluted to the point where it is ineffective and is no longer able to prevent growth, as judged by the media remaining clear. For C. difficile, these experiments were performed in duplicate in 24-well cell plates containing 2 ml BHIS media with various concentrations of empty nanoparticles or those loaded with the SigH TFD.

[6] = test system: C. difficile; experiment: Cell growth by Optical Density at 600 nm (Example 2); type: cell-based, Clostridium difficile; details: OD 600 nm; FIG. 4
Method: (§1) Conditions of cell growth were as described in Example 1, with care being taken to ensure that the experimental culture consisted of early-exponential vegetative cells that would enter stationary phase during the course of the experiment. Toxin production is developmentally controlled and only beings to occur as cells enter this phase.
Optical Density was measured at 600 nm in a standard spectrophotometer quantified cell growth.

[7] = test system: Toxins A and B (encoded by tcdAB) in C. difficile; experiment: Premier ToxinA&B ELISA of toxin production; type: cell-based, Clostridium difficile; details: FIG. 5
Method: A commercially available ELISA kit (Enzyme-Linked Immunosorbent Assay), Premier™ ToxinA&B, was obtained from Meridian Bioscience Inc. All assays were performed following manufacturers instructions.
as §1
The absorbance of the cells was used to assay an equal amount of biomaterial in each experiment using the described ELISA kit. […] This was set at 100% activity and all other samples were compared to this (FIG. 5). […] At 48 h, where maximal production is expected, only 22% of the untreated level of production was achieved. The maximum level of production for the treated cells was 32% at 72 h.

In the case of Nc1c2c([n+](CCCCCCCCCC[n+]3c4c(c(N)c5ccccc53)CCCC4)c3ccccc13)CCCC2.[Cl-].[Cl-] [Compound 7, 10,10′-(decane-1,10-diyl)bis(9-amino-1,2,3,4-tetrahydroacridinium)dichloride], the “stability of complexes formed” value [1] is given as “forms more stable complexes” and the “in vitro toxicity relative to dequalinium” value [2] is given as “lower toxicity in vitro compared to dequalinium; also recorded: less in vitro toxicity than dequalinium”.

B1: FapR TFD: dumbbell TFD from FapRDB1/FapRDB2 with FapR recognition site, delivered in compound 7—12 nanoparticles (nucleic acid)
chain 1: CTTGGTTTTTCCAAGTAGAATTAGTACCTGATACTAATAATT
chain 2: GCCTCTTTTTGAGGCAATTATTAGTATCAGGTACTAATTCTA
modifications: nanoparticle delivery, chemistry not fully specified
notes: dumbbell TFD from FapRDB1/FapRDB2 with FapR recognition site, delivered in compound 7—12 nanoparticles
With B1 the “cell growth (growth curves, in words)” value [3] was “failed to grow over the time course of the experiment”.

B2: Spo0A TFD: dumbbell TFD from Spo0ADB1/Spo0ADB2 with Spo0A binding site, delivered in compound 7—12 nanoparticles (nucleic acid)
chain 1: CTTGGTTTTTCCAAGAGCTTGTGTAGAAGGTTGTCCACAAGTTGTGAAATTTGTCGAAAAGCTATTTATC
chain 2: CCCTCTTTTTGAGGGGATAAATAGCTTTTCGACAAATTTCACAACTTGTGGACAACCTTCTACACAAGCT
modifications: dumbbell decoy delivered in nanoparticles, further chemistry not given here
With B2 the density of spores ([4]; after heat shock 25 minutes at 60° C., 8 μg/ml compound 7—12 and 0.4 μg/ml TFD, FIG. 3) was 1.54×10^2 CFU/ml, the “effect on sporulation (in words)” value ([4]; delivery to cells with nanoparticles, Example 1) was “strong inhibition of sporulation” and the “spores as percentage of total cells” value ([4]; treated samples, FIG. 3) was < 8.66×10^−5%. The “reduction of sporulation relative to untreated culture” value ([4]; treated versus untreated, FIG. 3) was “six-fold” and the “density of total cells” value ([4]; vegetative cells plus spore cells, nanoparticles giving 8 μg/ml compound 7—12 and 0.4 μg/ml TFD, BHIS, 37° C., FIG. 3) was 1.78×10^8 CFU/ml.

B3: SigH TFD: dumbbell TFD from SigH DB1/DB2 with binding sites for both Spo0A and SigH, delivered in compound 7—12 nanoparticles (nucleic acid)
chain 1: CTTGGTTTTTCCAAGTAATACGACAAACTAGTTAAATTTCATTGAAGGAATAAAAATATAATTATAGAATTGATTA
chain 2: GCCTCTTTTTGAGGCTAATCAATTCTATAATTATATTTTTATTCCTTCAATGAAATTTAACTAGTTTGTCGTATTA
modifications: dumbbell decoy delivered in nanoparticles, further chemistry not given here
For B3, the “effect on sporulation (in words)” value ([4]; time course similar to Example 1, FIG. 8) was “block sporulation significantly” and the MIC [5] was 3.4 nM.

B4: TcdR TFD: dumbbell TFD from TcdRDB1/TcdRDB2 with TcdR recognition site, delivered in compound 7—12 nanoparticles (nucleic acid)
chain 1: CTTGGTTTTTCCAAGAAGTTTACAAAATTATATTAGAATAACTTTTTATT
chain 2: CCCTCTTTTTGAGGGAATAAAAAGTTATTCTAATATAATTTTGTAAACTT
modifications: dumbbell, delivered in nanoparticles, chemistry not fully specified
notes: dumbbell TFD from TcdRDB1/TcdRDB2 with TcdR recognition site, delivered in compound 7—12 nanoparticles
For B4, the “cell growth (growth curves, in words)” value [6] was “failed to grow in a manner similar to untreated cells”, the “toxin production, % of untreated level” value ([7]; at 48 h, untreated cells at 48 h set at 100%) was 22% and the “maximum level of toxin production, % of untreated 48 h level” value ([7]; at 72 h, untreated cells at 48 h set at 100%) was 32%. For the same molecule, the “pattern of Toxins production (in words)” value ([7]; time course) was “produces much less of the Toxins”.
